Laboratory results as given in the Human Domainome abundance scans (Beltran et al. 2025).
± gives the uncertainty stated by the source.

B1: Peripheral plasma membrane protein CASK, residues 488 to 569; numbered along this chain, O14936 (parent)
chain: VRLVQFQKNTDEPMGITLKMNELNHCIVARIMHGGMIHRQGTLHVGDEIREINGISVANQTVEQLQKMLREMRGSITFKIVP

Variants of: B1
Experiment: abundance fitness (aPCA) (normalised: wild type 0, dead -1); higher = more abundant; growth selection in yeast, the domain comes from the species named
Conditions: Homo sapiens

**Q.** With L23I as the variant, how does the abundance fitness read?
**A.** Its abundance fitness is 0.054 ± 0.057.

**Q.** With L23V as the variant, how does the abundance fitness read?
**A.** The abundance fitness was 0.012 ± 0.025.

**Q.** For L23N, which abundance fitness is on record?
**A.** The abundance fitness was -0.038 ± 0.051.

**Q.** With L23G as the variant, how does the abundance fitness read?
**A.** Its abundance fitness is 0.033 ± 0.021.

**Q.** With G41N as the variant, how does the abundance fitness read?
**A.** Its abundance fitness is -0.072 ± 0.039.

**Q.** For G41M, which abundance fitness is on record?
**A.** The abundance fitness was -0.233 ± 0.036.

**Q.** With G41D as the variant, how does the abundance fitness read?
**A.** The abundance fitness was -0.065 ± 0.033.

**Q.** For G41P, which abundance fitness is on record?
**A.** The abundance fitness was -0.541 ± 0.047.

**Q.** Which abundance fitness does the source give for G41E here?
**A.** The abundance fitness was -0.1 ± 0.028.

**Q.** For G41W, which abundance fitness is on record?
**A.** Its abundance fitness is -0.829 ± 0.048.

**Q.** For G41V, which abundance fitness is on record?
**A.** The abundance fitness was -0.288 ± 0.025.

**Q.** Which abundance fitness does the source give for R39H here?
**A.** The abundance fitness was -0.118 ± 0.043.

**Q.** Which abundance fitness does the source give for R39D here?
**A.** Its abundance fitness is -0.096 ± 0.034.

**Q.** Which abundance fitness does the source give for T17K here?
**A.** Its abundance fitness is 0.015 ± 0.03.

**Q.** With T17A as the variant, how does the abundance fitness read?
**A.** The abundance fitness was -0.079 ± 0.024.

**Q.** With T17P as the variant, how does the abundance fitness read?
**A.** The abundance fitness was -1.07 ± 0.075.

**Q.** Which abundance fitness does the source give for I31R here?
**A.** The abundance fitness was -0.869 ± 0.052.

**Q.** For I31D, which abundance fitness is on record?
**A.** Its abundance fitness is -0.61 ± 0.075.

**Q.** For I31F, which abundance fitness is on record?
**A.** The abundance fitness was -0.331 ± 0.13.

**Q.** Which abundance fitness does the source give for I31Y here?
**A.** The abundance fitness was -0.579 ± 0.12.

**Q.** For Q66V, which abundance fitness is on record?
**A.** The abundance fitness was -0.141 ± 0.024.

**Q.** With Q66S as the variant, how does the abundance fitness read?
**A.** The abundance fitness was -0.012 ± 0.025.

**Q.** With Q66W as the variant, how does the abundance fitness read?
**A.** The abundance fitness was -0.228 ± 0.027.

**Q.** With Q66M as the variant, how does the abundance fitness read?
**A.** Its abundance fitness is -0.012 ± 0.03.

**Q.** With Q66L as the variant, how does the abundance fitness read?
**A.** The abundance fitness was -0.094 ± 0.024.

**Q.** With Q66T as the variant, how does the abundance fitness read?
**A.** Its abundance fitness is -0.012 ± 0.027.

**Q.** Which abundance fitness does the source give for L65T here?
**A.** Its abundance fitness is 0.006 ± 0.031.

**Q.** With L65V as the variant, how does the abundance fitness read?
**A.** Its abundance fitness is 0.025 ± 0.025.

**Q.** Which abundance fitness does the source give for L65K here?
**A.** The abundance fitness was -0.878 ± 0.081.

**Q.** For L65M, which abundance fitness is on record?
**A.** The abundance fitness was -0.057 ± 0.035.

**Q.** With G34L as the variant, how does the abundance fitness read?
**A.** Its abundance fitness is -0.261 ± 0.042.

**Q.** Which abundance fitness does the source give for G34T here?
**A.** Its abundance fitness is -0.126 ± 0.054.

**Q.** Which abundance fitness does the source give for L18T here?
**A.** The abundance fitness was -0.646 ± 0.086.

**Q.** With R2H as the variant, how does the abundance fitness read?
**A.** The abundance fitness was -0.05 ± 0.061.

**Q.** With R2N as the variant, how does the abundance fitness read?
**A.** The abundance fitness was 0.091 ± 0.057.

**Q.** With G15V as the variant, how does the abundance fitness read?
**A.** Its abundance fitness is -0.682 ± 0.048.

**Q.** Which abundance fitness does the source give for G15L here?
**A.** Its abundance fitness is -0.62 ± 0.044.

**Q.** For G15F, which abundance fitness is on record?
**A.** Its abundance fitness is -0.427 ± 0.041.

**Q.** With G15C as the variant, how does the abundance fitness read?
**A.** Its abundance fitness is -0.556 ± 0.045.

**Q.** For G15S, which abundance fitness is on record?
**A.** Its abundance fitness is -0.493 ± 0.035.

**Q.** For G15A, which abundance fitness is on record?
**A.** Its abundance fitness is -0.395 ± 0.04.

**Q.** Which abundance fitness does the source give for N24R here?
**A.** Its abundance fitness is -0.064 ± 0.02.

**Q.** For N24T, which abundance fitness is on record?
**A.** Its abundance fitness is -0.265 ± 0.03.

**Q.** With I49W as the variant, how does the abundance fitness read?
**A.** The abundance fitness was -1.04 ± 0.17.

**Q.** With I49Y as the variant, how does the abundance fitness read?
**A.** The abundance fitness was -0.998 ± 0.27.

**Q.** With K8T as the variant, how does the abundance fitness read?
**A.** Its abundance fitness is -0.179 ± 0.032.

**Q.** With K8D as the variant, how does the abundance fitness read?
**A.** Its abundance fitness is -0.403 ± 0.045.

**Q.** Which abundance fitness does the source give for K8P here?
**A.** The abundance fitness was -0.256 ± 0.034.

**Q.** With K8C as the variant, how does the abundance fitness read?
**A.** Its abundance fitness is -0.326 ± 0.038.

**Q.** Which abundance fitness does the source give for P13S here?
**A.** The abundance fitness was -0.036 ± 0.045.

**Q.** For P13L, which abundance fitness is on record?
**A.** Its abundance fitness is -0.125 ± 0.04.

**Q.** For P13V, which abundance fitness is on record?
**A.** Its abundance fitness is -0.046 ± 0.052.

**Q.** With P13K as the variant, how does the abundance fitness read?
**A.** Its abundance fitness is 0.055 ± 0.07.

**Q.** With P13I as the variant, how does the abundance fitness read?
**A.** The abundance fitness was -0.154 ± 0.054.

**Q.** For P13Y, which abundance fitness is on record?
**A.** Its abundance fitness is -0.154 ± 0.056.

**Q.** With M20P as the variant, how does the abundance fitness read?
**A.** The abundance fitness was -0.325 ± 0.046.

**Q.** Which abundance fitness does the source give for M20V here?
**A.** Its abundance fitness is -0.046 ± 0.03.

**Q.** With M20I as the variant, how does the abundance fitness read?
**A.** Its abundance fitness is -0.036 ± 0.053.

**Q.** With M20L as the variant, how does the abundance fitness read?
**A.** The abundance fitness was -0.016 ± 0.032.

**Q.** With M20H as the variant, how does the abundance fitness read?
**A.** The abundance fitness was -0.038 ± 0.062.

**Q.** Which abundance fitness does the source give for H38L here?
**A.** Its abundance fitness is -0.348 ± 0.03.

**Q.** With H38K as the variant, how does the abundance fitness read?
**A.** Its abundance fitness is -0.138 ± 0.037.

**Q.** With H38E as the variant, how does the abundance fitness read?
**A.** The abundance fitness was 0.048 ± 0.027.

**Q.** For H38Y, which abundance fitness is on record?
**A.** Its abundance fitness is -0.076 ± 0.049.

**Q.** Which abundance fitness does the source give for H38T here?
**A.** The abundance fitness was -0.313 ± 0.04.

**Q.** For V45A, which abundance fitness is on record?
**A.** The abundance fitness was -0.045 ± 0.043.

**Q.** For V45I, which abundance fitness is on record?
**A.** Its abundance fitness is -0.046 ± 0.047.

**Q.** For V45W, which abundance fitness is on record?
**A.** The abundance fitness was -0.464 ± 0.12.

**Q.** For V45L, which abundance fitness is on record?
**A.** Its abundance fitness is -0.061 ± 0.05.

**Q.** With E63T as the variant, how does the abundance fitness read?
**A.** Its abundance fitness is -0.109 ± 0.03.

**Q.** For E63V, which abundance fitness is on record?
**A.** The abundance fitness was -0.098 ± 0.023.

**Q.** With E63F as the variant, how does the abundance fitness read?
**A.** Its abundance fitness is -0.023 ± 0.06.

**Q.** With E63M as the variant, how does the abundance fitness read?
**A.** Its abundance fitness is -0.13 ± 0.031.

**Q.** Which abundance fitness does the source give for E63Y here?
**A.** Its abundance fitness is -0.079 ± 0.071.

**Q.** For A58W, which abundance fitness is on record?
**A.** The abundance fitness was -0.104 ± 0.028.

**Q.** For A58I, which abundance fitness is on record?
**A.** Its abundance fitness is 0.02 ± 0.053.

**Q.** Which abundance fitness does the source give for A58D here?
**A.** Its abundance fitness is -0.037 ± 0.039.

**Q.** For A58P, which abundance fitness is on record?
**A.** The abundance fitness was -0.327 ± 0.04.

**Q.** With T10Y as the variant, how does the abundance fitness read?
**A.** The abundance fitness was -0.097 ± 0.064.

**Q.** For T10Q, which abundance fitness is on record?
**A.** Its abundance fitness is -0.111 ± 0.044.

**Q.** With T10P as the variant, how does the abundance fitness read?
**A.** The abundance fitness was -0.045 ± 0.044.

**Q.** For T10V, which abundance fitness is on record?
**A.** The abundance fitness was -0.113 ± 0.028.

**Q.** Which abundance fitness does the source give for T10D here?
**A.** Its abundance fitness is -0.026 ± 0.057.

**Q.** Which abundance fitness does the source give for R70H here?
**A.** Its abundance fitness is 0.02 ± 0.04.
